Reference: the supplement of paper PMC9112550, “Optimization of the antimicrobial peptide Bac7 by deep mutational scanning” (BMC Biology, 2022)

Tested on: Escherichia coli TOP10
Test: shrunken log2 fold change of peptide-encoding DNA abundance (4.5 h post-induction vs induction); higher = less antimicrobial activity (less host growth inhibition)
Settings: time post-induction: 4.5 h; library: site-saturation at positions 5, 18, 19, 20
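Note: peptides expressed intracellularly from a pBAD plasmid library in pooled LB shake-flask culture, induced with 0.3% L-arabinose, DNA abundance read by NGS, three biological replicates, DESeq2 with apeglm shrinkage.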

Sequence	shrunken log2 fold change
RRIRPRPPRLPRPRPRPNPPPRP	0.188
RRIRQRPPRLPRPRPRPRHGPRP	-0.203
RRIRERPPRLPRPRPRPISLPRP	-0.28
RRIRRRPPRLPRPRPRPAVFPRP	0.45
RRIRLRPPRLPRPRPRPHDSPRP	0.0936
RRIRVRPPRLPRPRPRPPDFPRP	0.0119
RRIRVRPPRLPRPRPRPGMVPRP	0.0182
RRIRMRPPRLPRPRPRPRPFPRP	0.647
RRIRHRPPRLPRPRPRPGRAPRP	0.49
RRIRNRPPRLPRPRPRPWCNPRP	-0.507
RRIRMRPPRLPRPRPRPYYIPRP	-0.227
RRIRERPPRLPRPRPRPPSQPRP	-0.213
RRIRYRPPRLPRPRPRPSKHPRP	-0.786
RRIRARPPRLPRPRPRPPFMPRP	0.376
RRIRIRPPRLPRPRPRPGYGPRP	-0.309
RRIRQRPPRLPRPRPRPKYCPRP	0.0636
RRIRPRPPRLPRPRPRPARLPRP	0.00523
RRIRHRPPRLPRPRPRPFVEPRP	-0.45
RRIRIRPPRLPRPRPRPPTFPRP	-0.166
RRIRGRPPRLPRPRPRPFISPRP	0.183
RRIRKRPPRLPRPRPRPINSPRP	-0.395
RRIRGRPPRLPRPRPRPMHHPRP	0.533
RRIRCRPPRLPRPRPRPCRKPRP	-0.0115
RRIRFRPPRLPRPRPRPCHNPRP	-0.0447
RRIRLRPPRLPRPRPRPYVYPRP	-0.706

Sequence	shrunken log2 fold change
RRIRARPPRLPRPRPRPRYLPRP	-0.351
RRIRVRPPRLPRPRPRPGHSPRP	-0.195
RRIRFRPPRLPRPRPRPTQVPRP	-0.284
RRIRLRPPRLPRPRPRPDRPPRP	0.265
RRIRIRPPRLPRPRPRPFAFPRP	-0.155
RRIRHRPPRLPRPRPRPDLAPRP	0.0081
RRIRKRPPRLPRPRPRPRVRPRP	0.755
RRIRNRPPRLPRPRPRPESRPRP	0.114
RRIRGRPPRLPRPRPRPACGPRP	0.967
RRIRQRPPRLPRPRPRPETPPRP	0.495
RRIRYRPPRLPRPRPRPGAEPRP	0.227
RRIRGRPPRLPRPRPRPCDDPRP	1.24
RRIRLRPPRLPRPRPRPVLYPRP	-0.239
RRIRIRPPRLPRPRPRPFADPRP	-0.26
RRIRWRPPRLPRPRPRPSTVPRP	-0.362
RRIRPRPPRLPRPRPRPGVDPRP	0.0426
RRIRLRPPRLPRPRPRPSWIPRP	-0.131
RRIRLRPPRLPRPRPRPSMSPRP	0.221
RRIRNRPPRLPRPRPRPFLQPRP	-0.206
RRIRKRPPRLPRPRPRPEMIPRP	0.0131
RRIRWRPPRLPRPRPRPCKFPRP	-0.24
RRIRRRPPRLPRPRPRPIPWPRP	0.312
RRIRPRPPRLPRPRPRPAYMPRP	-0.231
RRIRKRPPRLPRPRPRPYFPPRP	-0.348
RRIRARPPRLPRPRPRPLSRPRP	0.203

Sequence	shrunken log2 fold change
RRIRMRPPRLPRPRPRPTNWPRP	0.474
RRIRSRPPRLPRPRPRPGIWPRP	0.123
RRIRARPPRLPRPRPRPGNNPRP	-0.0708
RRIRYRPPRLPRPRPRPQAEPRP	-0.0183
RRIRDRPPRLPRPRPRPMPDPRP	-0.00281
RRIRIRPPRLPRPRPRPPDDPRP	0.494
RRIRFRPPRLPRPRPRPLCAPRP	-0.0266
RRIRYRPPRLPRPRPRPECHPRP	0.0154
RRIRGRPPRLPRPRPRPTMEPRP	0.751
RRIRDRPPRLPRPRPRPEEHPRP	0.937
RRIRLRPPRLPRPRPRPCMCPRP	-0.967
RRIRHRPPRLPRPRPRPFPPPRP	-0.228
RRIRNRPPRLPRPRPRPWVWPRP	-0.115
RRIRMRPPRLPRPRPRPQQEPRP	0.137
RRIRSRPPRLPRPRPRPHPDPRP	-0.0132
RRIRCRPPRLPRPRPRPQGAPRP	-0.144
RRIRERPPRLPRPRPRPEVYPRP	-0.0514
RRIRGRPPRLPRPRPRPDYQPRP	-0.418
RRIRIRPPRLPRPRPRPVMMPRP	-0.31
RRIRHRPPRLPRPRPRPEFEPRP	0.0692
RRIRMRPPRLPRPRPRPRVHPRP	0.446
RRIRHRPPRLPRPRPRPPWVPRP	-0.101
RRIRQRPPRLPRPRPRPGDRPRP	0.132
RRIRYRPPRLPRPRPRPNVRPRP	-0.0227
RRIRGRPPRLPRPRPRPWLTPRP	0.134

Sequence	shrunken log2 fold change
RRIRTRPPRLPRPRPRPAGFPRP	-0.0588
RRIRTRPPRLPRPRPRPTEQPRP	0.303
RRIRIRPPRLPRPRPRPKGAPRP	0.36
RRIRMRPPRLPRPRPRPCNYPRP	0.0171
RRIRFRPPRLPRPRPRPRKQPRP	0.415
RRIRDRPPRLPRPRPRPVQRPRP	0.121
RRIRERPPRLPRPRPRPSVNPRP	-0.959
RRIRTRPPRLPRPRPRPVEHPRP	0.0387
RRIRARPPRLPRPRPRPPELPRP	0.947
RRIRHRPPRLPRPRPRPRSPPRP	0.243
RRIRMRPPRLPRPRPRPWPIPRP	-0.00141
RRIRKRPPRLPRPRPRPAQFPRP	0.258
RRIRYRPPRLPRPRPRPPGMPRP	0.0171
RRIRTRPPRLPRPRPRPMIAPRP	0.000989
RRIRCRPPRLPRPRPRPLQDPRP	0.0354
RRIRMRPPRLPRPRPRPEKKPRP	0.104
RRIRLRPPRLPRPRPRPVIRPRP	-0.502
RRIRKRPPRLPRPRPRPPSFPRP	0.288
RRIRDRPPRLPRPRPRPRSYPRP	-0.0236
RRIRERPPRLPRPRPRPHPQPRP	-0.103
RRIRCRPPRLPRPRPRPHQNPRP	-0.276
RRIRFRPPRLPRPRPRPRSDPRP	0.193
RRIRSRPPRLPRPRPRPLIQPRP	-0.319
RRIRARPPRLPRPRPRPYMYPRP	-0.635
RRIRWRPPRLPRPRPRPKLTPRP	0.475

Sequence	shrunken log2 fold change
RRIRGRPPRLPRPRPRPRTFPRP	1.1
RRIRYRPPRLPRPRPRPQFFPRP	-0.0644
RRIRIRPPRLPRPRPRPKDYPRP	-0.603
RRIRRRPPRLPRPRPRPWVTPRP	-0.0822
RRIRPRPPRLPRPRPRPDSFPRP	-0.0889
RRIRTRPPRLPRPRPRPDKFPRP	0.116
RRIRRRPPRLPRPRPRPIKWPRP	0.0148
RRIRLRPPRLPRPRPRPSIAPRP	-0.217
RRIRHRPPRLPRPRPRPLMSPRP	-0.196
RRIRWRPPRLPRPRPRPYTWPRP	-0.397
RRIRNRPPRLPRPRPRPLPHPRP	-0.387
RRIRHRPPRLPRPRPRPVWWPRP	0.174
RRIRTRPPRLPRPRPRPTFCPRP	0.147
RRIRIRPPRLPRPRPRPMPKPRP	-0.0638
RRIRRRPPRLPRPRPRPDKGPRP	-0.0101
RRIRNRPPRLPRPRPRPQTAPRP	-0.0947
RRIRHRPPRLPRPRPRPIKHPRP	-0.341
RRIRCRPPRLPRPRPRPEFSPRP	0.072
RRIRPRPPRLPRPRPRPNNLPRP	-0.181
RRIRKRPPRLPRPRPRPDPHPRP	-0.0362
RRIRLRPPRLPRPRPRPAFDPRP	-0.0259
RRIRDRPPRLPRPRPRPASKPRP	-0.0758
RRIRARPPRLPRPRPRPTDNPRP	0.152
RRIRSRPPRLPRPRPRPLWHPRP	-0.289
RRIRMRPPRLPRPRPRPFNKPRP	-0.52

Sequence	shrunken log2 fold change
RRIRVRPPRLPRPRPRPSDRPRP	0.194
RRIRARPPRLPRPRPRPPSNPRP	0.195
RRIRERPPRLPRPRPRPWTKPRP	0.0475
RRIRFRPPRLPRPRPRPISEPRP	-0.0674
RRIRLRPPRLPRPRPRPLTWPRP	0.0168
RRIRSRPPRLPRPRPRPAKQPRP	0.134
RRIRSRPPRLPRPRPRPCCQPRP	0.0545
RRIRQRPPRLPRPRPRPRHSPRP	-0.185
RRIRGRPPRLPRPRPRPMMSPRP	0.136
RRIRYRPPRLPRPRPRPQHEPRP	0.0438
RRIRARPPRLPRPRPRPAMYPRP	0.0624
RRIRRRPPRLPRPRPRPGRTPRP	0.315
RRIRHRPPRLPRPRPRPQDYPRP	-0.101
RRIRWRPPRLPRPRPRPAMEPRP	0.348
RRIRRRPPRLPRPRPRPFSSPRP	-0.0604
RRIRQRPPRLPRPRPRPKDNPRP	-0.23
RRIRVRPPRLPRPRPRPKCPPRP	0.0181
RRIRPRPPRLPRPRPRPWMEPRP	-0.0134
RRIRGRPPRLPRPRPRPFQGPRP	-0.0101
RRIRYRPPRLPRPRPRPGYSPRP	-0.874
RRIRSRPPRLPRPRPRPEVIPRP	0.18
RRIRIRPPRLPRPRPRPTTWPRP	-0.165
RRIRGRPPRLPRPRPRPQLLPRP	0.253
RRIRGRPPRLPRPRPRPIQAPRP	1.16
RRIRLRPPRLPRPRPRPECKPRP	0.0726
